Source: PMC10666116, “Tunable force transduction through the Escherichia coli cell envelope” (Proceedings of the National Academy of Sciences of the …, 2023)

Biological target: the molecule itself
Assay: cryo-EM structure; single-particle cryo-EM of purified TolQR complex at 7.5 mg/mL in SEC buffer (50 mM Tris/HCl pH 7.5, 300 mM NaCl, 2 mM EDTA, 0.01% LMNG); rigid-body refinement of a published model

B1: TolQ (natural protein, E. coli, UniProt P0ABU9 1-230, looked up)
chain: MTDMNILDLFLKASLLVKLIMLILIGFSIASWAIIIQRTRILNAAAREAEAFEDKFWSGIELSRLYQESQGKRDNLTGSEQIFYSGFKEFVRLHRANSHAPEAVVEGASRAMRISMNRELENLETHIPFLGTVGSISPYIGLFGTVWGIMHAFIALGAVKQATLQMVAPGIAEALIATAIGLFAAIPAVMAYNRLNQRVNKLELNYDNFMEEFTAILHRQAFTVSESNKG
notes: TolQ, E. coli, inner-membrane motor protein of the Tol system; expressed from pCEP13 (pT12-tolQ-tolR); Pentamer in the TolQR complex; also called TolQ pentamer; motor subunit of TolQR
stoichiometry N: 5
